Data as given in paper PMC12373895.

Tests used:
Test in all cases: ELONA
ERA GTPase [1] = biological target: T1, ERA GTPase (Staphylococcus aureus, UniProt Q2FY06 1-299)
T1 sequence: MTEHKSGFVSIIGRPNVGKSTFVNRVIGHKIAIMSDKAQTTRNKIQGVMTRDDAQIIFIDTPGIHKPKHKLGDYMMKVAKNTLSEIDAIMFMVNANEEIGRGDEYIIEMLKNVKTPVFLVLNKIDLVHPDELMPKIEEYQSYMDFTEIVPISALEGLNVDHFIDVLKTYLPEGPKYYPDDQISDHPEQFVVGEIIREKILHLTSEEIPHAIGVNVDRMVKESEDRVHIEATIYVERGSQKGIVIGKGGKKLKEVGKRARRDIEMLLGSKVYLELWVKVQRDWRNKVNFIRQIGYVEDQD

ERA deltaKH = biological target: T2, ERA deltaKH (Staphylococcus aureus, UniProt Q2FY06 1-202)
T2 sequence: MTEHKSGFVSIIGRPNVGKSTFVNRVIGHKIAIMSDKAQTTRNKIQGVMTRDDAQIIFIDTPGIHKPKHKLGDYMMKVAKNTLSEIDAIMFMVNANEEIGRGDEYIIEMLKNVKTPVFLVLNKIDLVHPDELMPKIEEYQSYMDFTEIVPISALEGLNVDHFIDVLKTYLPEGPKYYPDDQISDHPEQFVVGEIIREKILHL

[2] = biological target: T3, 1F8 (Chagas antigenic protein) (Trypanosoma cruzi, UniProt P07749 1-211)
T3 sequence: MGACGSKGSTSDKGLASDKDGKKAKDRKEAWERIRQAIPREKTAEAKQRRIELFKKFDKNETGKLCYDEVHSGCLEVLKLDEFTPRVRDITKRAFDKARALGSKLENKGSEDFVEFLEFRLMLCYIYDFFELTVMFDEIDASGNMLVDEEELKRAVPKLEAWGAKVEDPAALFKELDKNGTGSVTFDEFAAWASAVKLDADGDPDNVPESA

ERA GTPase [3] = biological target: T1, ERA GTPase; remark: listed apart in the source

TACTAGCCCTACCTGTACTCTCGAGCCGATTTTAAGGATC (ssDNA) [AptERA 2 (40 nt)]
apparent K (half saturation) (ERA GTPase [1]): 185 ± 3 nM
binding result (ERA deltaKH): no binding
binding result [2]: no binding
Kd (ERA GTPase [3]): 243 ± 16 nM
